Measurements from patent publication US20240132548A1 (Janssen / Centocor, published 2024).
Where a chain is given by its changes, count along the chain named.

Assays:
Assay in all cases: BLI (Octet), biotinylated mAb on streptavidin sensors, culture supernatant
[1] = target: T1, RSV181177, non-stabilized RSV F B consensus soluble polypeptide with foldon and C-tag (respiratory syncytial virus, subgroup B …, UniProt O36634 26-109; O36634 137-540)
T1 construct: Measured in crude culture supernatant, no furin co-transfection; processing may be incomplete; End 551 is the end of the entry as counted; also called non-stabilized RSV F type B; non-stabilized F
T1 chain 1: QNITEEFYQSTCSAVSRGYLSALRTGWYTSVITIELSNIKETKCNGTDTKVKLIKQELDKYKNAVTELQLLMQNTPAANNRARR
T1 chain 2: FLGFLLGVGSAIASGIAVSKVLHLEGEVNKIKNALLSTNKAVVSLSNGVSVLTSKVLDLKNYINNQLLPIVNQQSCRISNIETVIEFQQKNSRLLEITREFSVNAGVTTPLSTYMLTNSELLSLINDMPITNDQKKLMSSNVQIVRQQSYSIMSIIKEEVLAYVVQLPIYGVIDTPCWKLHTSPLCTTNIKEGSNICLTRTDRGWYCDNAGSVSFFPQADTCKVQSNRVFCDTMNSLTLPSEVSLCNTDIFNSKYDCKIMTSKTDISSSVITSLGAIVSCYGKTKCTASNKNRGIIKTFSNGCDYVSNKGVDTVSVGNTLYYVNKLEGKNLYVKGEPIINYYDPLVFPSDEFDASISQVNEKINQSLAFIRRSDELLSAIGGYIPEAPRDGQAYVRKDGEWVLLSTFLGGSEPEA
Method: (§1) Quantitative Octet (BioLayer Interferometry) was used for measuring protein concentration in the supernatants at day of harvest and after 7 or 30 days storage at 4° C. CR9501 (an antibody specifically recognizing pre-fusion RSV F protein, which comprises the variable regions of the antibodies 58C5 as described in WO2012/006596) and CR9506 (recognizing pre-fusion and post-fusion RSV F protein and comprising a heavy chain variable region comprising SEQ ID NO: 21, and a light chain variable region comprising SEQ ID NO: 22) were biotinylated by standard protocols and immobilized on Streptavidin biosensors (ForteBio, Portsmouth, UK).
(§2) Afterwards, the coated biosensors were blocked in mock cell culture supernatant. A quantitative experiment was performed as follows: temperature 30° C., shaking speed 1000 rpm, time of the assay 300 sec. The concentration of the protein was calculated using a standard curve. The standard curve was prepared for each coated antibody CR9501 and CR9506 using the pre-fusion RSV FA protein (SEQ ID NO: 19; described previously in WO17174568) diluted in mock medium. […] The data analysis was done using the ForteBio Data Analysis 10.0.1.6 software (ForteBio).

[2] = target: T2, RSV180917 (I152M + K226M + D486N + S215P + L203I + P101Q + D489Y + T357R + N371Y) (respiratory syncytial virus, subgroup B …, UniProt O36634 26-109)
T2 construct: also called RSV181917
T2 chain 1: T1 chain 1 with P76Q
T2 chain 2: T1 chain 2 with I16M, L67I, S79P, K90M, T221R, N235Y, D350N, D353Y
Method: as §1, §2

[3] = target: T3, RSV181181 (I152M + K226M + D486N + S215P + P101Q + D489Y) (respiratory syncytial virus, subgroup B …, UniProt O36634 26-109; P13843 137-540)
T3 chain 1: T1 chain 1 with P76Q
T3 chain 2: T1 chain 2 with I16M, S79P, K90M, D350N, D353Y
Method: as §1, §2

[4] = target: T4, RSV180910 (RSV FB signal peptide, C-tag) (respiratory syncytial virus, subgroup B …, UniProt O36634 26-109; P13843 137-540)
T4 construct: Same mature protein as RSV180916, expressed with the RSV B signal peptide; measured in culture supernatant, furin co-transfected
T4 chain 1: T1 chain 1 with P76Q
T4 chain 2: T1 chain 2 with I16M, L67I, S79P, K90M, D350N
Method: as §1, §2

Measured: binding result

B1: CR9506 (antibody, human IgG1, kappa, V domains shown)
VH: EVQLVQSGAEVKKPGSSVKVSCKASGGTFSRSLITWVRQAPGQGLEWMGEISLVFGSAKNAQKFQGRVTITADESTSTAHMEMISLKHEDTAVYYCAAHQYGSGTHNNFWDESELRFDLWGQGTLVTVSS
VL: DIVMTQSPSSLSASVGDRVTIACRASQSIGTYLNWYQQKPGKAPKLLIYAASSLQSGVPSRFSGSGSGTHFTLAISSLQAEDFATYSCQQSYTIPYTFGQGTKLEIKR
notes: Biotinylated for Octet; coated and also used HRP-labelled as detection antibody in the ELISA
binds: all assays above
